Target: MT-100
Assay: BLI

Kd: 2.5 nM | koff: 0.0011 s⁻¹
B1: extracellular domain of human Tie2 fused with Fc (hTie2-ECD-Fc) (Fc fusion)
chain: AMDLILINSLPLVSDAETSLTCIASGWRPHEPITIGRDFEALMNQHQDPLEVTQDVTREWAKKVVWKREKASKINGAYFCEGRVRGEAIRIRTMKMRQQASFLPATLTMTVDKGDNVNISFKKVLIKEEDAVIYKNGSFIHSVPRHEVPDILEVHLPHAQPQDAGVYSARYIGGNLFTSAFTRLIVRRCEAQKWGPECNHLCTACMNNGVCHEDTGECICPPGFMGRTCEKACELHTFGRTCKERCSGQEGCKSYVFCLPDPYGCSCATGWKGLQCNEACHPGFYGPDCKLRCSCNNGEMCDRFQGCLCSPGWQGLQCEREGIQRMTPKIVDLPDHIEVNSGKFNPICKASGWPLPTNEEMTLVKPDGTVLHPKDFNHTDHFSVAIFTIHRILPPDSGVWVCSVNTVAGMVEKPFNISVKVLPKPLNAPNVIDTGHNFAVINISSEPYFGDGPIKSKKLLYKPVNHYEAWQHIQVTNEIVTLNYLEPRTEYELCVQLVRRGEGGEGHPGPVRRFTTASIGLPPPRGLNLLPKSQTTLNLTWQPIFPSSEDDFYVEVERRSVQKSDQQNIKVPGNLTSVLLNNLHPREQYVVRARVNTKAQGEWSEDLTAWTLSDILPPQPENIKISNITHSSAVISWTILDGYSISSITIRYKVQGKNEDQHVDVKIKNATITQYQLKGLEPETAYQVDIFAENNIGSSNPAFSHELVTLPESQAPADLGGGKMLL

From article PMC11799434 (2025)
